Assay results published in publication PMC8047137, “Smyd1 Orchestrates Early Heart Development Through Positive and Negative Gene Regulation” (Frontiers in Cell and Developmental Biology, 2021).

Target: V5-tagged ASH2L (absent small homeotic-2-like protein) (mouse, UniProt Q91X20 1-623)
Assay: cell-based or functional assay

Sequence of V5-tagged ASH2L (absent small homeotic-2-like protein) (Q91X20 whole entry): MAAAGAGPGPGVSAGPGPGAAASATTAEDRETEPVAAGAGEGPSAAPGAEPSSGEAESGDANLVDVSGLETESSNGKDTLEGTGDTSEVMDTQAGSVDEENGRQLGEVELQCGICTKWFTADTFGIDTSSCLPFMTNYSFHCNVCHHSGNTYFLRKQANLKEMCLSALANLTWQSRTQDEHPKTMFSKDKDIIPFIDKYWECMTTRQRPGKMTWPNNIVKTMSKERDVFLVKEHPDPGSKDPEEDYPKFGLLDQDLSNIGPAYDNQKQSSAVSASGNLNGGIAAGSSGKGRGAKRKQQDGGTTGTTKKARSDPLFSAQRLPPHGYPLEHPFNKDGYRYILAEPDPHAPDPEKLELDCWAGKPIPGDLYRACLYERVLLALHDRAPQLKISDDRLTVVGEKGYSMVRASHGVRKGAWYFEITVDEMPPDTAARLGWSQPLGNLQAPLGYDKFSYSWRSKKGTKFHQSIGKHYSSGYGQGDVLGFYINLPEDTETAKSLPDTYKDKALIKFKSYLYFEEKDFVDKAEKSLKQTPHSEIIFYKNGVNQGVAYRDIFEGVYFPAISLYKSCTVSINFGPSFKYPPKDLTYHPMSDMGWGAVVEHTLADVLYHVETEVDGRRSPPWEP

B1: Myc-tagged Smyd1 (SET and MYND domain-containing protein 1) (natural protein, mouse, UniProt P97443 1-490, looked up)
chain: MTIGSMENVEVFTSEGKGRGLKATKEFWAADVIFAERAYSAVVFDSLINFVCHTCFKRQEKLHRCGQCKFAHYCDRTCQKDAWLNHKNECAAIKKYGKVPNENIRLAARIMWRVEREGTGLTEGCLVSVDDLQNHVEHFGEEEQKELRVDVDTFLQYWPPQSQQFSMQYISHIFGVINCNGFTLSDQRGLQAVGVGIFPNLGLVNHDCWPNCTVIFNNGNHEAVKSMFHTQMRIELRALGKISEGEELTVSYIDFLHLSEERRRQLKKQYYFDCSCEHCQKGLKDDLFLAAKEDPKPSQEVVKEMIQFSKDTLEKIDKARSEGLYHEVVKLCRECLEKQEPVFADTNLYVLRLLSIASEVLSYLQAYEEASHYARRMVDGYMKLYHHNNAQLGMAVMRAGLTNWHAGHIEVGHGMICKAYAILLVTHGPSHPITKDLEAMRMQTEMELRMFRQNEFMYHKMREAALNNQPMQVMAEPSNEPAPALFHKKQ
Isl1 promoter (pLG3-Isl1-WT) luciferase reporter activity in C2C12 cells, ASH2L overexpressed with Smyd1: 25 fold above basal level
